Measurements reported in paper PMC4216055 (Carcinogenesis, 2014).

Molecular target: the molecule itself
Assay: cross-linking

B1: Human recombinant granulin-epithelin precursor (rGEP) (natural protein, UniProt P28799 14-593, looked up)
chain: LVAGTRCPDGQFCPVACCLDPGGASYSCCRPLLDKWPTTLSRHLGGPCQVDAHCSAGHSCIFTVSGTSSCCPFPEAVACGDGHHCCPRGFHCSADGRSCFQRSGNNSVGAIQCPDSQFECPDFSTCCVMVDGSWGCCPMPQASCCEDRVHCCPHGAFCDLVHTRCITPTGTHPLAKKLPAQRTNRAVALSSSVMCPDARSRCPDGSTCCELPSGKYGCCPMPNATCCSDHLHCCPQDTVCDLIQSKCLSKENATTDLLTKLPAHTVGDVKCDMEVSCPDGYTCCRLQSGAWGCCPFTQAVCCEDHIHCCPAGFTCDTQKGTCEQGPHQVPWMEKAPAHLSLPDPQALKRDVPCDNVSSCPSSDTCCQLTSGEWGCCPIPEAVCCSDHQHCCPQGYTCVAEGQCQRGSEIVAGLEKMPARRASLSHPRDIGCDQHTSCPVGQTCCPSLGGSWACCQLPHAVCCEDRQHCCPAGYTCNVKARSCEKEVVSAQPATFLARSPHVGVKDVECGEGHFCHDNQTCCRDNRQGWACCPYRQGVCCADRRHCCPAGFRCAARGTKCLRREAPRWDAPLRDPALRQLL
modifications: N-glycan (removed by PNGase F only for the gel analysis)
  binding result: binds

B2: rGEP-3A (rGEP with alanine mutations at RRH(555-557)) (natural protein, human, UniProt P28799 14-593, looked up)
chain: LVAGTRCPDGQFCPVACCLDPGGASYSCCRPLLDKWPTTLSRHLGGPCQVDAHCSAGHSCIFTVSGTSSCCPFPEAVACGDGHHCCPRGFHCSADGRSCFQRSGNNSVGAIQCPDSQFECPDFSTCCVMVDGSWGCCPMPQASCCEDRVHCCPHGAFCDLVHTRCITPTGTHPLAKKLPAQRTNRAVALSSSVMCPDARSRCPDGSTCCELPSGKYGCCPMPNATCCSDHLHCCPQDTVCDLIQSKCLSKENATTDLLTKLPAHTVGDVKCDMEVSCPDGYTCCRLQSGAWGCCPFTQAVCCEDHIHCCPAGFTCDTQKGTCEQGPHQVPWMEKAPAHLSLPDPQALKRDVPCDNVSSCPSSDTCCQLTSGEWGCCPIPEAVCCSDHQHCCPQGYTCVAEGQCQRGSEIVAGLEKMPARRASLSHPRDIGCDQHTSCPVGQTCCPSLGGSWACCQLPHAVCCEDRQHCCPAGYTCNVKARSCEKEVVSAQPATFLARSPHVGVKDVECGEGHFCHDNQTCCRDNRQGWACCPYRQGVCCADAAACCPAGFRCAARGTKCLRREAPRWDAPLRDPALRQLL
  binding result: binds
